Test results published in US20230192824A1 (UNITED STATES OF AMERICA AS REPRESENTED BY THE SECRETARY OF …, published 2023).
Residue numbers refer to the chain shown, from its start.

How the values were obtained:
[1] = biological target: T1, CfaE PD, pilin domain (residues 203-383) of CfaE (Escherichia coli (ETEC) strain H10407); test: ELISA on coated CfaE domains (FIG. 10)
T1 construct: Tag not written for this construct; also called CfaE pilin domain
T1 chain: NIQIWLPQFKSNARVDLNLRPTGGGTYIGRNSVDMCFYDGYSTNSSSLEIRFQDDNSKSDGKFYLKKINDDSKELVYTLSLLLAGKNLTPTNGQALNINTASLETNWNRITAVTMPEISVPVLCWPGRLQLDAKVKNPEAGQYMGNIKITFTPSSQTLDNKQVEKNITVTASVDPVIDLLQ

[2] = biological target: CooD, tip adhesin of CS1 fimbriae on wild type ETEC strain WS1974A (Escherichia coli (ETEC) strain WS1974A); test: cell-based or functional assay
[3] = biological target: CsuD, tip adhesin of CS14 fimbriae on wild type ETEC strain WS3294A (Escherichia coli (ETEC) strain WS3294A); test: cell-based or functional assay
[4] = biological target: T2, CsbD L85I/H144A, tip adhesin of CS17 fimbriae on wild type ETEC strain LSN02-013966/A (Escherichia coli (ETEC) strain …); test: cell-based or functional assay
T2 chain: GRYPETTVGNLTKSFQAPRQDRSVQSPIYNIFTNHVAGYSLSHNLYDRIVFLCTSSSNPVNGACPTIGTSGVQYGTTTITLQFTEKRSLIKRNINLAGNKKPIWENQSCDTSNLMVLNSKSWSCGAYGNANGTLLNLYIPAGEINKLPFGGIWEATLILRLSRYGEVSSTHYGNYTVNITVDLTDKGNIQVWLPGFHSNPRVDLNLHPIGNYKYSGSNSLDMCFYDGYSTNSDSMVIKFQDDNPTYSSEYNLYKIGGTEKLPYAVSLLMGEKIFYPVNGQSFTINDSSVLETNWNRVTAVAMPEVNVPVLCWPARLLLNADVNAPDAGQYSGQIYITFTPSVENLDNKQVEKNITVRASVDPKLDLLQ

[5] = biological target: T3, CotD, tip adhesin of CS2 fimbriae on wild type ETEC strain C91f (Escherichia coli (ETEC) strain C91f); test: cell-based or functional assay
T3 chain: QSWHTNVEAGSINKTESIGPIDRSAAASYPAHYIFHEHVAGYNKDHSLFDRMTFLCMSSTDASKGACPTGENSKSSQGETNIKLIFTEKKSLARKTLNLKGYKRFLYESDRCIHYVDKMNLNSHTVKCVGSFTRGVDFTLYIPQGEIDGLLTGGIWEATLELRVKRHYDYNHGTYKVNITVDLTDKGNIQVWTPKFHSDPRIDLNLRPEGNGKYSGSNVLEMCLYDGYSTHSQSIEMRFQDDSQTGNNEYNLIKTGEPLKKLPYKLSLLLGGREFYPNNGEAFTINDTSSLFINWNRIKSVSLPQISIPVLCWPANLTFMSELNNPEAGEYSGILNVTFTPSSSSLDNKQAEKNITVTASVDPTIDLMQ

[6] = biological target: CsfD, tip adhesin of CS4 fimbriae on wild type ETEC strain BANG10-SP (Escherichia coli (ETEC) strain BANG10-SP); test: cell-based or functional assay
[7] = biological target: T4, CsbD, tip adhesin of CS17 fimbriae on wild type ETEC strain WS6788A (Escherichia coli (ETEC) strain WS6788A); test: cell-based or functional assay
T4 chain: T2 chain with I67L, A126H

[8] = biological target: T5, CfaE, tip adhesin of CFA/I fimbriae on wild type ETEC strain H10407 (Escherichia coli (ETEC) strain H10407, UniProt P25734 23-360); test: cell-based or functional assay
T5 sequence: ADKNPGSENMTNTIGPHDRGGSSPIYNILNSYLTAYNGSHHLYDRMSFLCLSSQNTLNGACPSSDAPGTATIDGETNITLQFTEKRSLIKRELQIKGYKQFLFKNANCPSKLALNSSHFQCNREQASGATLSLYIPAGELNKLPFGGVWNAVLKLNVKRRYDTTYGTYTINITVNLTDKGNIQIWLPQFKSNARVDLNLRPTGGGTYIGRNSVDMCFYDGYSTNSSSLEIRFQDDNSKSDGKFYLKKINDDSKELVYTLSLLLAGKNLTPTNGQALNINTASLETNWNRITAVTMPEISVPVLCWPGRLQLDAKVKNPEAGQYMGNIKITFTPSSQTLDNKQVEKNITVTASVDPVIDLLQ

[9] = biological target: T6, dsc19CsbD6xhis (WS6788A), donor strand complemented recombinant CS17 fimbrial tip adhesin CsbD (Escherichia coli (ETEC) strain WS6788A); test: ELISA on coated adhesin
T6 construct: also called dscCsbD; primary CsbD
T6 chain: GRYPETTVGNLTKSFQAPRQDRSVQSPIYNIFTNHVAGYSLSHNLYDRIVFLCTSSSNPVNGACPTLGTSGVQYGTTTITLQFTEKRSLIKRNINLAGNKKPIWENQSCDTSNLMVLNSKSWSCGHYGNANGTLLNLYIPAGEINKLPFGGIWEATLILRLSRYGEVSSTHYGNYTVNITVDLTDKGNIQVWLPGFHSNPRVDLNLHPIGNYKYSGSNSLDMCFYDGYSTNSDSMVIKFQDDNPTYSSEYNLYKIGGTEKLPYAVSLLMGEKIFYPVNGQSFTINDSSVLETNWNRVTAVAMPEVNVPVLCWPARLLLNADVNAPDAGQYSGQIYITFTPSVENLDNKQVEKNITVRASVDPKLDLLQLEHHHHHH

[10] = biological target: T7, dsc19CotD6xhis (C91f), donor strand complemented recombinant CS2 fimbrial tip adhesin CotD (Escherichia coli (ETEC) strain C91f); test: ELISA on coated adhesin
T7 construct: also called dscCotD; CS2 adhesin
T7 chain: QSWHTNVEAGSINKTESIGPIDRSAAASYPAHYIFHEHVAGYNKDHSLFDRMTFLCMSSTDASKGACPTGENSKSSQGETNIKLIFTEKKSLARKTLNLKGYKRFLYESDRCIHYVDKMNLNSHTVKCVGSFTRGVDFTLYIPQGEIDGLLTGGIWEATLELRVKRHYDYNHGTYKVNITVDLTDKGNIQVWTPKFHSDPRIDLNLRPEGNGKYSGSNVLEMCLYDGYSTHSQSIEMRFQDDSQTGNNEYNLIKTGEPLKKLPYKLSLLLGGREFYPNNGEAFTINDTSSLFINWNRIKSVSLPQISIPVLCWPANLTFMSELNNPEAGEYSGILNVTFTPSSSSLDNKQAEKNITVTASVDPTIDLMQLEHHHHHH

B1: anti-CfaE mouse mAb P1F9 (antibody, V domains shown)
VH: QVQLQQPGAELVKPGASVKLSCKASGYTFTSYWMHWVRQRPGQGLDWIGEIDPSDSYINYNQKFKGKATLTVDKSSSTAYMQLSSLTSEDSAVYYCGRKSLGVSVLAYWGQGTPVTVSA
VL: DIVMTQSHKFMSTSVGDRVSISCTASQDVNAAVAWYQQKPGQSPKLLIYWASTRHTGVPDRFTGSGSGTDYTLTISSVQAEDLALYYCQQHYSTPLTFGAGTKLELK
[1]
  binding result: binds
[2]
  MIC in HAI: > 250 µg/mL
[3]
  MIC in HAI: > 250 µg/mL
[4]
  MIC in HAI: > 250 µg/mL
[5]
  MIC in HAI: > 250 µg/mL
[6]
  MIC in HAI: > 250 µg/mL
[7]
  MIC in HAI: > 250 µg/mL
[8]
  MIC in HAI: 1.5 µg/mL
[9]
  binding result: no binding (tested: mAb 2 ug/ml)
[10]
  binding result: no binding (tested: mAb 2 ug/ml)
